Results: article PMC5316841

Biological target: Fbxw7 (UniProt Q969H0)
Test: anti-FLAG co-IP, HSF1 immunoblot
Settings: reference: wild type HSF1; sites S303

binding against the reference: weaker
Substance: HSF1 (from UniProt Q00613) HSF1 S303A
